Test [1] has as its target T1, modified human HLA-G β2M MHC class I complex (HLA-G specific amino acids replaced by HLA-A consensus amino … (human)).
T1 construct: Counter antigen: single-chain fusion of peptide, beta-2 microglobulin and HLA-G in which 14 HLA-G unique surface positions were mutated to an HLA-A consensus; also called degrafted HLA-G; HLA-G-0007
The experiment in a line: ELISA, biotinylated degrafted HLA-G on streptavidin plate (no EC50; Max. OD 0.13). The method, then: (§1) Streptavidin coated plates (Nunc, MicroCoat #11974998001) were coated with 25 μl/well biotinylated human degrafted HLA-G at a concentration of 250 ng/ml and incubated at 4° C. overnight. After washing (3×90 μl/well with PBST-buffer) 25 μl anti-HLA-G samples (1:3 dilution in OSEP buffer) or rat serum (1:600 dilution in OSEP) were added and incubated 1 h at RT. After washing (3×90 μl/well with PBST-buffer) 25 μl/well of a mixture of goat-anti-rat IgG1-POD (Bethyl #A110-106P), goat-anti-rat IgG2a-POD (Bethyl #A110-109P) and goat-anti-rat IgG2b-POD (Bethyl #A110-111P) 1:10000 in OSEP was added and incubated at RT for 1 h on shaker. After washing (6×90 μl/well with PBST-buffer) 25 μl/well TMB substrate (Roche, 11835033001) was added and incubated until OD 2-3. Measurement took place on a Tecan Safire 2 instrument at 370/492 nm.
For orientation: An ELISA detects its analyte on a solid surface through an enzyme-linked reagent.

Test [2] addresses T2, recombinant soluble human HLA-G β2M MHC class I complex, trimer (human).
T2 construct: Non-biotinylated; also called HLA-G Trimer; trimeric HLA-G
The test can be described thus: competition ELISA, antibody 44 nM; competitor coated ILT4-Fc. The protocol: (§2) The ELISA was set up by coating the Fc tagged ILT2 and ILT4 respectively to Maxisorp microtiter plates. After incubation and washing steps, the respective antibodies were added at a concentration of 100 nM. Soluble His tagged monomeric, dimeric or trimeric HLA-G was added to the wells. After incubation and washing steps, detection of bound receptor was carried out by anti-His-antibody-POD conjugates.
(§3) The above tables summarize the blocking of interaction between rec. HLA-G proteins (monomer and oligomers) to its receptors ILT2 and ILT4 by the described HLAG antibodies at a concentration of 110 nM (*HLAG-0090 was tested at a concentration of 44 nM) as assessed by ELISA. Shown are the % inhibitions of the HLA-G/receptor interaction (for ILT2 and ILT4). The less pronounced ILT4 inhibition depends on the major β2M dependent interaction of this receptor.

Test [3] addresses T3, recombinant soluble human HLA-G β2M MHC class I complex, monomer (human).
T3 construct: His tagged; biotinylated where coated on streptavidin plates, non-biotinylated in SPR; also called HLA-G-0003; wt HLA-G (monomer)
The test is described as above. The method, then:
as §2, §3

For test [4], the target named is T4, recombinant soluble human HLA-G β2M MHC class I complex, dimer (human).
T4 construct: Non-biotinylated; also called HLA-G Dimer; dimeric HLA-G
The test is described as above. The protocol: as §2, §3

Test [5] concerns the target T1, modified human HLA-G β2M MHC class I …. The test can be described thus: ELISA, biotinylated degrafted HLA-G on streptavidin plate (no EC50; Max. OD 0.2). The protocol:
as §1

Test [6] addresses T2, recombinant soluble human HLA-G β2M MHC …. The experiment in a line: competition ELISA, antibody 44 nM; competitor coated ILT2-Fc. The method, then:
as §2, §3

Test [7] deals with T3, recombinant soluble human HLA-G β2M MHC …. The test is described as above. The method, then:
as §2, §3

The target of test [8] is T4, recombinant soluble human HLA-G β2M MHC …. Described as above. The protocol: as §2, §3
For test [9], the target named is T1, modified human HLA-G β2M MHC class I …. The test can be described thus: ELISA, biotinylated degrafted HLA-G on streptavidin plate (no EC50; Max. OD 0.15). The protocol: as §1

B1: HLA-G-0031 (antibody, V domains shown)
VH: QVKLMQSGAALVKPGTSVKMSCNASGYTFTDYWVSWVKQSHGKRLEWVGEISPNSGASNFDENFKDKATLTVDKSTSTAYMELSRLTSEDSAIYYCTRSSHGSFRWFAYWGQGTLVTVSS
VL: AIVLNQSPSSIVASQGEKVTITCRASSSVSSNHLHWYQQKPGAFPKFVIYSTSQRASGIPSRFSGSGSGTSYSFTISRVEAEDVATYYCQQGSSNPYTFGAGTKLELK
notes: Rat monoclonal antibody obtained from CD rats
As to B1, in [1], the binding result was “no binding”.

B2: HLA-G-0090 (antibody, V domains shown)
VH: QVQLQQSGPGLLKPSQTLSLTCAISGDSVSSNRAAWNWIRQSPSRGLEWLGRTYYRSKWYNDYAVSVQGRITLIPDTSKNQFSLRLNSVTPEDTAVYYCASVRAVAPFDYWGQGVLVTVSS
VL: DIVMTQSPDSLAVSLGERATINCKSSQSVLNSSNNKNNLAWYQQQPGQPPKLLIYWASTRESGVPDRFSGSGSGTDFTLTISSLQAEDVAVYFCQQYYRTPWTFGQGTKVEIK
notes: Human antibody from humanized OmniRat (OMT) rats
On to B2, for which the “% inhibition of ILT4 binding” value in test [2] was determined as 47%; in [3] it was 31%; in [4], 31%. For the same molecule, the binding result in [5] was “no binding”. For the same molecule, the entries for the “% inhibition of ILT2 binding” value in [6], in [7] and in [8] were 99%, 92% and 100%, respectively.

B3: HLA-G-0039 (antibody, V domains shown)
VH: EVQLLESGGGLVQPGGSLRLSCAASGFTFSSYAMNWVRQAPGKGLEWVSVISGSGVSTYYADSVKGRFTISRDNSRNTLSLQMNSLRAEDTAVYYCAKDGSYNYGYGDYFDYWGQGTLVTVSS
VL: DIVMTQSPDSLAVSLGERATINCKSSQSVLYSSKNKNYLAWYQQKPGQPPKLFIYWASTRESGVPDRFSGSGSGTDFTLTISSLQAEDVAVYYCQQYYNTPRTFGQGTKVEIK
notes: as for B2
Consider B3, for which the binding result in test [1] is “no binding”.

B4: HLA-G-0041 (antibody, V domains shown)
VH: EVQLLESGGGLVQPGGSLRLSCAASGFTFSTYGMSWVRQAPGKGLEWVSVISGGGVSTYYADSVKGRFTISRDNSKNTLYLQMNRLRAEDTAVYYCAKDGSYNYGYGDYFDYWGQGTLVTVSS
VL: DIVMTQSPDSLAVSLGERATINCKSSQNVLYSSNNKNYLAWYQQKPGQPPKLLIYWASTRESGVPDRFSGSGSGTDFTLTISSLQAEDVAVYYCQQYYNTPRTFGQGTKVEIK
notes: as for B2
Turning to B4, the binding result in test [9] is “no binding”.

Values taken from patent publication US20250051455A1 (Hoffmann-La Roche, published 2025).
